According to patent US20110300138A1 (published 2011):

How the values were obtained:
[1] = biological target: TSHR with Arg274 mutated to Ala, expressed in CHO cells (human) (UniProt P16473); assay: cell-based or functional assay
[2] = biological target: wild type TSHR expressed in CHO cells (human) (UniProt P16473); assay: cell-based or functional assay
[3] = biological target: wild type TSHR (human TSH receptor, full length) expressed in CHO cells (human) (UniProt P16473); assay: cell-based or functional assay
[4] = biological target: wild type TSHR (human TSH receptor) expressed in CHO cells (human) (UniProt P16473); assay: cell-based or functional assay
[5] = biological target: TSHR with Thr104 mutated to Ala (expressed in CHO cells) (human) (UniProt P16473); assay: cell-based or functional assay
[6] = biological target: human thyroid stimulating hormone receptor (TSHR), full length (human) (UniProt P16473); assay: 125I-K1-70 Fab (competitor) binding to TSHR coated tubes; test sample 0.1 µg/mL in HBD serum
[7] = biological target: TSHR260-alkaline phosphatase (TSHR260-AP) (human) (UniProt P05187); assay: TSHR260-AP bridge ELISA, full length TSHR on wells; 0.1 µg/mL, diluted in HBD
[8] = biological target: thyroid stimulating hormone receptor (full length human TSHR) (human) (UniProt P16473); assay: ELISA, inhibition of TSH-biotin binding to TSHR coated wells; 100 µg/mL, diluted in HBD serum pool
[9] = biological target: human thyroid stimulating hormone receptor (TSHR), full length (human) (UniProt P16473); assay: 125I-K1-70 Fab (competitor) binding to TSHR coated tubes; test sample 0.01 µg/mL in assay buffer
[10] = biological target: TSHR260-alkaline phosphatase (TSHR260-AP) (human) (UniProt P05187); assay: TSHR260-AP bridge ELISA, full length TSHR on wells; 0.005 µg/mL, diluted in HBD
[11] = biological target: thyroid stimulating hormone receptor (full length human TSHR) (human) (UniProt P16473); assay: ELISA, inhibition of TSH-biotin binding to TSHR coated wells; 100 µg/mL, diluted in assay buffer

Molecule: TSH (ligand)
- % inhibition of TSH stimulation; TSH (2) 3 ng/mL, run at the end of assay [1]: 0%
- Cyclic AMP produced; TSH 3 ng/mL [1]: 99.2 pmol/mL
- Cyclic AMP produced; TSH (2) 3 ng/mL, run at the end of assay [1]: 100 pmol/mL
- Mutated/wild type (%) of cyclic AMP produced; TSH 3 ng/mL [1]: 102%
- Mutated/wild type (%) of cyclic AMP produced; TSH (2) 3 ng/mL, run at the end of assay [1]: 92%
- % inhibition of TSH stimulation; TSH (2) 3 ng/mL, run at the end of assay [2]: 0%
- Cyclic AMP produced; TSH 3 ng/mL [2]: 97.1 pmol/mL
- Cyclic AMP produced; TSH (2) 3 ng/mL, run at the end of assay [2]: 109 pmol/mL
- % inhibition of TSH stimulation; TSH (2) control [3]: 0%
- % inhibition of TSH stimulation; TSH (2) control; Experiment 1 [3]: 0.1%
- % inhibition of TSH stimulation; TSH (2) control; Experiment 2 [3]: 0%
- Cyclic AMP produced (pmol/mL), TSH 0.01 ng/mL, Experiment 1 [3]: 4.36 pmol/mL
- Cyclic AMP produced (pmol/mL), TSH 0.01 ng/mL, Experiment 2 [3]: 2.21 pmol/mL
- Cyclic AMP produced (pmol/mL), TSH 0.01 ng/mL, Experiment 3 [3]: 5.19 pmol/mL
- Cyclic AMP produced (pmol/mL), TSH 0.03 ng/mL, Experiment 1 [3]: 9.19 pmol/mL
- Cyclic AMP produced (pmol/mL), TSH 0.03 ng/mL, Experiment 2 [3]: 3.61 pmol/mL
- Cyclic AMP produced (pmol/mL), TSH 0.03 ng/mL, Experiment 3 [3]: 9.82 pmol/mL
- Cyclic AMP produced (pmol/mL), TSH 0.1 ng/mL, Experiment 1 [3]: 26.9 pmol/mL
- Cyclic AMP produced (pmol/mL), TSH 0.1 ng/mL, Experiment 2 [3]: 7.86 pmol/mL
- Cyclic AMP produced (pmol/mL), TSH 0.1 ng/mL, Experiment 3 (duplicate determination) [3]: 25 pmol/mL
- Cyclic AMP produced (pmol/mL), TSH 0.3 ng/mL, Experiment 1 [3]: 42 pmol/mL
- Cyclic AMP produced (pmol/mL), TSH 0.3 ng/mL, Experiment 2 [3]: 27.1 pmol/mL
- Cyclic AMP produced (pmol/mL), TSH 0.3 ng/mL, Experiment 3 [3]: 91.7 pmol/mL
- Cyclic AMP produced (pmol/mL), TSH 1 ng/mL, Experiment 1 [3]: 60.1 pmol/mL
- Cyclic AMP produced (pmol/mL), TSH 1 ng/mL, Experiment 2 [3]: 54.2 pmol/mL
- Cyclic AMP produced (pmol/mL), TSH 1 ng/mL, Experiment 3 [3]: 192 pmol/mL
- Cyclic AMP produced (pmol/mL), TSH 3 ng/mL, Experiment 1 [3]: 61.3 pmol/mL
- Cyclic AMP produced (pmol/mL), TSH 3 ng/mL, Experiment 2 [3]: 58.1 pmol/mL
- Cyclic AMP produced (pmol/mL), TSH 3 ng/mL, Experiment 3 [3]: 226 pmol/mL
- Cyclic AMP produced; TSH 3 ng/mL [3]: 50 pmol/mL
- Cyclic AMP produced; TSH 3 ng/mL; Experiment 1 [3]: 67.7 pmol/mL
- Cyclic AMP produced; TSH 3 ng/mL; Experiment 2 [3]: 60.7 pmol/mL
- Cyclic AMP produced; TSH (2) [3]: 53.1 pmol/mL
- Cyclic AMP produced; TSH (2); Experiment 1 [3]: 67.5 pmol/mL
- Cyclic AMP produced; TSH (2); Experiment 2 [3]: 67.8 pmol/mL
- % inhibition of TSH stimulation; TSH (2), run at the end of assay [4]: 0%
- % inhibition of TSH stimulation; TSH (2), run at the end of assay; Experiment 1 [4]: 8%
- % inhibition of TSH stimulation; TSH (2), run at the end of assay; Experiment 2 [4]: 0%
- Cyclic AMP produced (pmol/mL), TSH 0.01 ng/mL [4]: 2.45 pmol/mL
- Cyclic AMP produced (pmol/mL), TSH 0.01 ng/mL, Experiment 1 [4]: 1.86 pmol/mL
- Cyclic AMP produced (pmol/mL), TSH 0.01 ng/mL, Experiment 2 [4]: 2.49 pmol/mL
- Cyclic AMP produced (pmol/mL), TSH 0.03 ng/mL [4]: 4.78 pmol/mL
- Cyclic AMP produced (pmol/mL), TSH 0.03 ng/mL, Experiment 1 [4]: 3.32 pmol/mL
- Cyclic AMP produced (pmol/mL), TSH 0.03 ng/mL, Experiment 2 [4]: 5.12 pmol/mL
- Cyclic AMP produced (pmol/mL), TSH 0.1 ng/mL [4]: 16.2 pmol/mL
- Cyclic AMP produced (pmol/mL), TSH 0.1 ng/mL, Experiment 1 [4]: 14.6 pmol/mL
- Cyclic AMP produced (pmol/mL), TSH 0.1 ng/mL, Experiment 2 [4]: 13.7 pmol/mL
- Cyclic AMP produced (pmol/mL), TSH 0.3 ng/mL [4]: 44.3 pmol/mL
- Cyclic AMP produced (pmol/mL), TSH 0.3 ng/mL, Experiment 1 [4]: 48.5 pmol/mL
- Cyclic AMP produced (pmol/mL), TSH 0.3 ng/mL, Experiment 2 [4]: 39.9 pmol/mL
- Cyclic AMP produced (pmol/mL), TSH 1 ng/mL [4]: 77.2 pmol/mL
- Cyclic AMP produced (pmol/mL), TSH 1 ng/mL, Experiment 1 [4]: 91.2 pmol/mL
- Cyclic AMP produced (pmol/mL), TSH 1 ng/mL, Experiment 2 [4]: 74.3 pmol/mL
- Cyclic AMP produced (pmol/mL), TSH 3 ng/mL [4]: 95.5 pmol/mL
- Cyclic AMP produced (pmol/mL), TSH 3 ng/mL, Experiment 1 [4]: 119 pmol/mL
- Cyclic AMP produced (pmol/mL), TSH 3 ng/mL, Experiment 2 [4]: 88.3 pmol/mL
- Cyclic AMP produced (pmol/mL), wild type TSHR, TSH 0.01 ng/mL [4]: 2.48 pmol/mL
- Cyclic AMP produced (pmol/mL), wild type TSHR, TSH 0.01 ng/mL, Experiment 1 [4]: 2.6 pmol/mL
- Cyclic AMP produced (pmol/mL), wild type TSHR, TSH 0.01 ng/mL, Experiment 2 [4]: 3.89 pmol/mL
- Cyclic AMP produced (pmol/mL), wild type TSHR, TSH 0.03 ng/mL [4]: 4.62 pmol/mL
- Cyclic AMP produced (pmol/mL), wild type TSHR, TSH 0.03 ng/mL, Experiment 1 [4]: 4.27 pmol/mL
- Cyclic AMP produced (pmol/mL), wild type TSHR, TSH 0.03 ng/mL, Experiment 2 [4]: 5.52 pmol/mL
- Cyclic AMP produced (pmol/mL), wild type TSHR, TSH 0.1 ng/mL [4]: 17.6 pmol/mL
- Cyclic AMP produced (pmol/mL), wild type TSHR, TSH 0.1 ng/mL, Experiment 1 [4]: 10.9 pmol/mL
- Cyclic AMP produced (pmol/mL), wild type TSHR, TSH 0.1 ng/mL, Experiment 2 [4]: 13.3 pmol/mL
- Cyclic AMP produced (pmol/mL), wild type TSHR, TSH 0.3 ng/mL [4]: 40.4 pmol/mL
- Cyclic AMP produced (pmol/mL), wild type TSHR, TSH 0.3 ng/mL, Experiment 1 [4]: 32.3 pmol/mL
- Cyclic AMP produced (pmol/mL), wild type TSHR, TSH 0.3 ng/mL, Experiment 2 [4]: 35.4 pmol/mL
- Cyclic AMP produced (pmol/mL), wild type TSHR, TSH 1 ng/mL [4]: 92.5 pmol/mL
- Cyclic AMP produced (pmol/mL), wild type TSHR, TSH 1 ng/mL, Experiment 1 [4]: 85 pmol/mL
- Cyclic AMP produced (pmol/mL), wild type TSHR, TSH 1 ng/mL, Experiment 2 [4]: 82.1 pmol/mL
- Cyclic AMP produced (pmol/mL), wild type TSHR, TSH 3 ng/mL [4]: 104 pmol/mL
- Cyclic AMP produced (pmol/mL), wild type TSHR, TSH 3 ng/mL, Experiment 1 [4]: 124 pmol/mL
- Cyclic AMP produced (pmol/mL), wild type TSHR, TSH 3 ng/mL, Experiment 2 [4]: 91.7 pmol/mL
- Cyclic AMP produced, wild type TSHR, TSH 0.01 ng/mL [4]: 1.41 pmol/mL
- Cyclic AMP produced, wild type TSHR, TSH 0.03 ng/mL [4]: 1.99 pmol/mL
- Cyclic AMP produced, wild type TSHR, TSH 0.1 ng/mL [4]: 5.54 pmol/mL
- Cyclic AMP produced, wild type TSHR, TSH 0.3 ng/mL [4]: 16.3 pmol/mL
- Cyclic AMP produced, wild type TSHR, TSH 1 ng/mL [4]: 44.2 pmol/mL
- Cyclic AMP produced, wild type TSHR, TSH 3 ng/mL [4]: 53.9 pmol/mL
- % inhibition of TSH stimulation; TSH (2), run at the end of assay [5]: 10%
- Cyclic AMP produced (pmol/mL), TSH 0.01 ng/mL, Experiment 1 [5]: 2.58 pmol/mL
- Cyclic AMP produced (pmol/mL), TSH 0.01 ng/mL, Experiment 2 [5]: 4.28 pmol/mL
- Cyclic AMP produced (pmol/mL), TSH 0.03 ng/mL, Experiment 1 [5]: 3.2 pmol/mL
- Cyclic AMP produced (pmol/mL), TSH 0.03 ng/mL, Experiment 2 [5]: 5.71 pmol/mL
- Cyclic AMP produced (pmol/mL), TSH 0.1 ng/mL, Experiment 1 [5]: 3.64 pmol/mL
- Cyclic AMP produced (pmol/mL), TSH 0.1 ng/mL, Experiment 2 [5]: 9.8 pmol/mL
- Cyclic AMP produced (pmol/mL), TSH 0.3 ng/mL, Experiment 1 [5]: 5.38 pmol/mL
- Cyclic AMP produced (pmol/mL), TSH 0.3 ng/mL, Experiment 2 [5]: 35.7 pmol/mL
- Cyclic AMP produced (pmol/mL), TSH 1 ng/mL, Experiment 1 [5]: 15.8 pmol/mL
- Cyclic AMP produced (pmol/mL), TSH 1 ng/mL, Experiment 2 [5]: 57.1 pmol/mL
- Cyclic AMP produced (pmol/mL), TSH 3 ng/mL, Experiment 1 [5]: 34.5 pmol/mL
- Cyclic AMP produced (pmol/mL), TSH 3 ng/mL, Experiment 2 [5]: 58.5 pmol/mL
- Cyclic AMP produced; TSH 3 ng/mL alone [5]: 63.7 pmol/mL
- Cyclic AMP produced; TSH (2) 3 ng/mL, run at the end of assay [5]: 57 pmol/mL
- Mutated/Wild type (%), TSH 0.01 ng/mL, Experiment 1 [5]: 188%
- Mutated/Wild type (%), TSH 0.01 ng/mL, Experiment 2 [5]: 204%
- Mutated/Wild type (%), TSH 0.03 ng/mL, Experiment 1 [5]: 203%
- Mutated/Wild type (%), TSH 0.03 ng/mL, Experiment 2 [5]: 127%
- Mutated/Wild type (%), TSH 0.1 ng/mL, Experiment 1 [5]: 199%
- Mutated/Wild type (%), TSH 0.1 ng/mL, Experiment 2 [5]: 95%
- Mutated/Wild type (%), TSH 0.3 ng/mL, Experiment 1 [5]: 168%
- Mutated/Wild type (%), TSH 0.3 ng/mL, Experiment 2 [5]: 100%
- Mutated/Wild type (%), TSH 1 ng/mL, Experiment 1 [5]: 99%
- Mutated/Wild type (%), TSH 1 ng/mL, Experiment 2 [5]: 79%
- Mutated/Wild type (%), TSH 3 ng/mL, Experiment 1 [5]: 72%
- Mutated/Wild type (%), TSH 3 ng/mL, Experiment 2 [5]: 74%
- Mutated/wild type (%) of cyclic AMP produced; TSH 3 ng/mL alone [5]: 76%
- Mutated/wild type (%) of cyclic AMP produced; TSH (2) 3 ng/mL, run at the end of assay [5]: 68%

B1: 5C9 IgG (antibody, from another filing, V domains shown)
VH: EVQLVESGGGLIQPGGSLRLSCAASGFTVSSNYMSWVRQAPGKGLEWVSVTYSGGSTSYADSVKGRFTISRDNSKNTLYLQMNSLRAEDTAVYYCARGGRYCSSISCYARSGCDYWGQGTLVTVSS
VL: AIQMTQSPSSLSASVGDRVTITCRASQSISNYLNWYQQKPGKAPKLLIYAASSLQSGVPSRFSGSGSGTDFTLTISSLQPEDFATYYCQQSYSSPSTTFGQGTKLEIK
- Inhibition of binding (%) [6]: 6%
- Mean absorbance at 405 nm (absorbance at 405 nm) [7]: -0.005
- Inhibition of binding (%) [8]: 37.1%
- Inhibition of binding (%) [9]: 10.9%
- Mean absorbance at 405 nm (absorbance at 405 nm) [10]: 0.02
- Inhibition of binding (%) [11]: 54.3%
